For 94 variants, protein stability index results are on record in the supplement of paper PMC10567573.

The chains are these.
B1: TRIM14 (parent)
chain: REQADSCREQLDIMNDLSNRVWSI
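Note: lentivirally expressed fusions sorted by FACS into six bins by GFP to DsRed ratio, PSI derived from sequencing read proportions per bin multiplied by bin number.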

This data set covers variants of B1. The data set can be described thus: protein stability index of a GFP-peptide fusion (GPS, HEK-293T) (PSI 1-6); higher = more stable. To be noted: c terminus: a fixed tail appended.
Take REQADSCREQLDIMRDLSNRVWSI [N15R]: the protein stability index worked out at 2.17.
On to REQADSCREQLDIMMDLSNRVWSI [N15M], for which the protein stability index was determined as 2.58.
The value for REQADSCREQLDIMGDLSNRVWSI [N15G] was 2.12.
In the case of REQADSCREQLDIMHDLSNRVWSI [N15H], the protein stability index is 2.54.
In the case of REQADSCREQLDIMCDLSNRVWSI [N15C], the protein stability index was 2.53.
REQADSCREQLDIMFDLSNRVWSI [N15F]: the protein stability index was 2.39.
For the variant REQADSCREQLDIMYDLSNRVWSI [N15Y], the protein stability index was 1.96.
The value for REQADSCREQLDIMVDLSNRVWSI [N15V] was 2.14; that for REQADSCREQLDIMEDLSNRVWSI [N15E] was 2.76; that for REQADSCREQLDIMSDLSNRVWSI [N15S] was 1.94.
The value for REQADSCREQLDIMPDLSNRVWSI [N15P] was 2.18; that for REQADSCREQLDIMIDLSNRVWSI [N15I] was 2.33.
For the variant REQADSCREQLDIMWDLSNRVWSI [N15W], the protein stability index was 2.68.
The value for REQADSCREQLDIMTDLSNRVWSI [N15T] was 2.36.
The value for REQADSCREQLDIMADLSNRVWSI [N15A] was 2.25; that for REQADSCREQLDIMLDLSNRVWSI [N15L] was 2.91; that for REQADSCREQLDIMDDLSNRVWSI [N15D] was 2.69.
Turning to REQADSCREQLDIMKDLSNRVWSI [N15K], the protein stability index was 2.44.
The value for REQADSCREQLDIMNDLSNRVLSI [W22L] was 3.
The value for REQADSCREQLDIMNDLSNRVESI [W22E] was 4.84; that for REQADSCREQLDIMNDLSNRVDSI [W22D] was 4.56; that for REQADSCREQLDIMNDLSNRVFSI [W22F] was 2.82.
The value for REQADSCREQLDIMNDLSNRVVSI [W22V] was 3.14; that for REQADSCREQLDIMNDLSNRVMSI [W22M] was 3.29.
Turning to REQADSCREQLDIMNDLSNRVKSI [W22K], the protein stability index stood at 3.98.
The value for REQADSCREQLDIMNDLSNRVHSI [W22H] was 3.79.
The value for REQADSCREQLDIMNDLSNRVTSI [W22T] was 4.13; that for REQADSCREQLDIMNDLSNRVPSI [W22P] was 4.32; that for REQADSCREQLDIMNDLSNRVASI [W22A] was 3.85.
The value for REQADSCREQLDIMNDLSNRVSSI [W22S] was 4.21.
For the variant REQADSCREQLDIMNDLSNRVNSI [W22N], the protein stability index stood at 3.72.
For the variant REQADSCREQLDIMNDLSNRVRSI [W22R], the protein stability index amounted to 4.28.
The value for REQADSCREQLDIMNDLSNRVISI [W22I] was 2.79.
On to REQADSCREQLDIMNDLSNRVYSI [W22Y], for which the protein stability index came out at 2.78.
The value for REQADSCREQLDIMNDLSNRVCSI [W22C] was 3.77.
The value for REQADSCREQLDIMNDLSNRVQSI [W22Q] was 4.12; that for REQADSCREQLDIMNDLSNRVGSI [W22G] was 4.34; that for REQADSCREQLDIMNDNSNRVWSI [L17N] was 2.56.
The value for REQADSCREQLDIMNDISNRVWSI [L17I] was 2.59; that for REQADSCREQLDIMNDMSNRVWSI [L17M] was 2.63.
With REQADSCREQLDIMNDKSNRVWSI [L17K], the protein stability index stood at 2.59.
The value for REQADSCREQLDIMNDESNRVWSI [L17E] was 3.3; that for REQADSCREQLDIMNDDSNRVWSI [L17D] was 3.18.
The value for REQADSCREQLDIMNDTSNRVWSI [L17T] was 2.7; that for REQADSCREQLDIMNDASNRVWSI [L17A] was 2.46.
Take REQADSCREQLDIMNDSSNRVWSI [L17S]: the protein stability index came out at 2.72.
The value for REQADSCREQLDIMNDVSNRVWSI [L17V] was 2.68.
The value for REQADSCREQLDIMNDHSNRVWSI [L17H] was 2.71.
The value for REQADSCREQLDIMNDWSNRVWSI [L17W] was 1.85; that for REQADSCREQLDIMNDPSNRVWSI [L17P] was 2.28.
With REQADSCREQLDIMNDFSNRVWSI [L17F], the protein stability index was found to be 2.13.
The value for REQADSCREQLDIMNDRSNRVWSI [L17R] was 2.25.
For the variant REQADSCREQLDIMNDGSNRVWSI [L17G], the protein stability index came to 2.96.
As for REQADSCREQLDIMNDYSNRVWSI [L17Y], the protein stability index was 2.1.
REQADSCREQLDIMNDCSNRVWSI [L17C]: the protein stability index was determined as 2.53.
With REQADSCREQLDIMNDQSNRVWSI [L17Q], the protein stability index was found to be 2.45.
For REQADSCREQLDIMNDLSNRHWSI [V21H], the protein stability index is 2.69.
As for REQADSCREQLDIMNDLSNRRWSI [V21R], the protein stability index was found to be 2.18.
Consider REQADSCREQLDIMNDLSNRSWSI [V21S], for which the protein stability index is 2.45.
As for REQADSCREQLDIMNDLSNRTWSI [V21T], the protein stability index was 2.76.
Take REQADSCREQLDIMNDLSNREWSI [V21E]: the protein stability index was 3.58.
Take REQADSCREQLDIMNDLSNRIWSI [V21I]: the protein stability index stood at 3.01.
Turning to REQADSCREQLDIMNDLSNRFWSI [V21F], the protein stability index is 3.06.
The value for REQADSCREQLDIMNDLSNRKWSI [V21K] was 2.69.
The value for REQADSCREQLDIMNDLSNRDWSI [V21D] was 3.92; that for REQADSCREQLDIMNDLSNRAWSI [V21A] was 2.96; that for REQADSCREQLDIMNDLSNRPWSI [V21P] was 3.01.
In the case of REQADSCREQLDIMNDLSNRYWSI [V21Y], the protein stability index worked out at 3.19.
The value for REQADSCREQLDIMNDLSNRGWSI [V21G] was 2.87.
The value for REQADSCREQLDIMNDLSNRNWSI [V21N] was 2.97; that for REQADSCREQLDIMNDLSNRWWSI [V21W] was 2.01; that for REQADSCREQLDIMNDLSNRQWSI [V21Q] was 3.06.
The value for REQADSCREQLDIMNDLSNRMWSI [V21M] was 2.01; that for REQADSCREQLDIMNDLSNRCWSI [V21C] was 2.41.
On to REQADSCREQLDIMNDLSNRLWSI [V21L], for which the protein stability index stood at 2.88.
With REQADSCREQLDIMNDLSERVWSI [N19E], the protein stability index was determined as 2.98.
The value for REQADSCREQLDIMNDLSTRVWSI [N19T] was 2.04; that for REQADSCREQLDIMNDLSGRVWSI [N19G] was 2.61.
The value for REQADSCREQLDIMNDLSKRVWSI [N19K] was 2.1; that for REQADSCREQLDIMNDLSLRVWSI [N19L] was 2.08; that for REQADSCREQLDIMNDLSVRVWSI [N19V] was 2.39.
REQADSCREQLDIMNDLSYRVWSI [N19Y]: the protein stability index was determined as 2.08.
The value for REQADSCREQLDIMNDLSMRVWSI [N19M] was 2.53.
Consider REQADSCREQLDIMNDLSQRVWSI [N19Q], for which the protein stability index stood at 2.94.
In the case of REQADSCREQLDIMNDLSPRVWSI [N19P], the protein stability index worked out at 2.95.
The value for REQADSCREQLDIMNDLSCRVWSI [N19C] was 1.58; that for REQADSCREQLDIMNDLSARVWSI [N19A] was 2.91; that for REQADSCREQLDIMNDLSHRVWSI [N19H] was 2.26.
The value for REQADSCREQLDIMNDLSFRVWSI [N19F] was 1.54; that for REQADSCREQLDIMNDLSRRVWSI [N19R] was 2.3.
The value for REQADSCREQLDIMNDLSWRVWSI [N19W] was 2.12; that for REQADSCREQLDIMNDLSSRVWSI [N19S] was 3.17.
Take REQADSCREQLDIMNDLSIRVWSI [N19I]: the protein stability index came out at 1.98.
With REQADSCREQLDIMNDLSDRVWSI [N19D], the protein stability index came out at 3.16.
